Consider nine variants from FireProtDB (doi:10.1016/j.jmb.2005.05.056).

To fix the notation:
B1: Small ribosomal subunit protein bS6, P23370 (parent)
chain: MRRYEVNIVLNPNLDQSQLALEKEIIQRALENYGARVEKVEELGLRRLAYPIAKDPQGYFLWYQVEMPEDRVNDLARELRIRDNVRRVMVVKSQEPFLANA

The variants in this data set derive from B1. As to conditions: Thermus thermophilus; pH 8; 25 °C; GdnHCl; Fluorescence; Tris-HCl 50 mM; reversible: No; structure 1RIS; whole UniProt chain shown.

Values joined by “and” are separate entries in the source; they are usually repeats but may differ in a detail not shown here. Equal entries are not always repeated.

For MRRYEVNIVLNPNLDQSQLALEKEIIQRALENYGGRVEKVEELGLRRLAYPIAKDPQGYFLWYQVEMPEDRVNDLARELRIRDNVRRVMVVKSQEPFLANA [A35G], the “ddG of mutation (higher = less stable)” value was 2.51 kJ/mol and 2.93 kJ/mol; the denaturant m value is 2.91 kcal/mol/M and 2.95 kcal/mol/M; the “denaturant midpoint (higher = more stable)” value (shortened to “denaturant midpoint”) was 3.03 M and 3.5 M; the unfolding free energy is 36.8 kJ/mol and 43.1 kJ/mol.

As for MRRYEVNAVLNPNLDQSQLALEKEIIQRALENYGARVEKVEELGLRRLAYPIAKDPQGYFLWYQVEMPEDRVNDLARELRIRDNVRRVMVVKSQEPFLANA [I8A], the “ddG of mutation (higher = less stable)” value is 12.1 kJ/mol and 18.4 kJ/mol; the denaturant m value was 2.78 kcal/mol/M and 2.44 kcal/mol/M and 2.83 kcal/mol/M; the “denaturant midpoint” value is 1.82 M and 2.05 M and 2.35 M; the unfolding free energy is 21.3 kJ/mol and 20.9 kJ/mol and 27.6 kJ/mol.

For the variant MRRYEVNIVLNPNLDQSQLALEKEIAQRALENYGARVEKVEELGLRRLAYPIAKDPQGYFLWYQVEMPEDRVNDLARELRIRDNVRRVMVVKSQEPFLANA [I26A], the “ddG of mutation (higher = less stable)” value was 11.7 kJ/mol and 12.6 kJ/mol and 13.4 kJ/mol; the denaturant m value is 2.47 kcal/mol/M and 2.61 kcal/mol/M and 2.62 kcal/mol/M; the “denaturant midpoint” value is 2.09 M and 2.46 M and 2.97 M; the unfolding free energy was 21.8 kJ/mol and 26.8 kJ/mol and 32.6 kJ/mol.

Take MRRYEVNIVLNPNLDQSQLALEKEIIQRALENYGARVEKVEELGLRRLAYPIAKDPQGYFLWYQVEMPEDRVNDLARELRIRDNARRVMVVKSQEPFLANA [V85A]: the “ddG of mutation (higher = less stable)” value is 12.1 kJ/mol and 9.62 kJ/mol; the denaturant m value is 2.51 kcal/mol/M and 2.84 kcal/mol/M; the “denaturant midpoint” value was 2.05 M and 2.54 M; the unfolding free energy is 21.3 kJ/mol and 30.1 kJ/mol.

As for MRRYEVNIVLNPNLDQSQLALEKEIIQRALENYGARVEKVEELGLRRLAYPIAKDPQGYFLWYQVEMPEDRVNDLARELRIRDNVRRAMVVKSQEPFLANA [V88A], the “ddG of mutation (higher = less stable)” value was 4.6 kJ/mol and 12.6 kJ/mol and 8.37 kJ/mol; the denaturant m value was 3.12 kcal/mol/M and 2.01 kcal/mol/M and 2.82 kcal/mol/M; the “denaturant midpoint” value was 2.66 M and 2.9 M and 3.2 M; the unfolding free energy was 34.7 kJ/mol and 27.2 kJ/mol and 37.7 kJ/mol.

Regarding MRRYEVNIVLNPNLDQSQLALEKEIIQRALENYGARVEKVEELGLRRLAYPIAKDPQGYFLWYQVEMPEDRVNDAARELRIRDNVRRVMVVKSQEPFLANA [L75A], the “ddG of mutation (higher = less stable)” value is 3.77 kJ/mol and 3.35 kJ/mol and 2.93 kJ/mol; the denaturant m value is 3.13 kcal/mol/M and 2.95 kcal/mol/M and 3.19 kcal/mol/M; the “denaturant midpoint” value was 2.71 M and 2.95 M and 3.24 M; the unfolding free energy was 35.6 kJ/mol and 36.4 kJ/mol and 43.1 kJ/mol.

With MRRYEVNIVLNPNLDQSQLALEKEIIQRALENYGARVEKVEELGLRRLAYPIAKDPQGYFLWYQAEMPEDRVNDLARELRIRDNVRRVMVVKSQEPFLANA [V65A], the denaturant m value is 2.61 kcal/mol/M and 2.77 kcal/mol/M and 2.84 kcal/mol/M.

Consider MRRYEVNIVLNPNLDQSQLALQKEIIQRALENYGARVEKVEELGLRRLAYPIAKDPQGYFLWYQVEMPEDRVNDLARELRIRDNVRRVMVVKSQEPFLANA [E22Q], for which the unfolding free energy was 31.8 kJ/mol and 37.2 kJ/mol and 47.7 kJ/mol.

Take MRRYEVNIVLNPNLDQSQLALEKEIIQRALENAGARVEKVEELGLRRLAYPIAKDPQGYFLWYQVEMPEDRVNDLARELRIRDNVRRVMVVKSQEPFLANA [Y33A]: the denaturant m value was 2.83 kcal/mol/M and 3.26 kcal/mol/M and 2.34 kcal/mol/M; the “denaturant midpoint” value was 3.05 M and 3.65 M and 3.82 M; the unfolding free energy was 36 kJ/mol and 49.8 kJ/mol and 37.2 kJ/mol.
